B1: ZNF449 (parent)
chain: FQEYDTDCEVFRQRFRQFQYREAA
B2: RHOBTB3 (parent)
chain: DSCCPAGIFQAMCLLICAEMYQVS

Variants of: B1
Assay: protein stability index of a GFP-peptide fusion (GPS, HEK-293T) (PSI 1-6); higher = more stable
Settings: c terminus: a fixed tail appended
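Also: lentivirally expressed fusions sorted by FACS into six bins by GFP to DsRed ratio, PSI derived from sequencing read proportions per bin multiplied by bin number.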

Variant	protein stability index
E3G	1.41
E3D	2.24
E3Q	2.04
E3S	2.15
E3P	1.56
E3Y	1.68
E3N	1.68
E3W	2.6
E3M	1.85
E3C	1.76
E3V	2.31
E3A	2.08
E3R	2.54
E3K	2.03
E3I	1.91
E3F	2.35
E3L	1.99
E3H	2.11
Q2E	2.73
Q2S	3.32
Q2Y	2.5
Q2C	2.26
Q2V	1.68
Q2G	2.59

Variant	protein stability index
Q2M	2.61
Q2A	2.9
Q2L	2.33
Q2N	2.93
Q2P	2.72
Q2F	2.48
Q2R	2.09
Q2D	3.19
Q2H	1.78
Q2W	2.67
Q2I	1.97
Q2T	2.69
Q2K	2.96
D5A	2.25
D5C	2.09
Y4T	1.7
Y4N	2.33
Y4R	2.14
Y4M	2.25
Y4V	2.41
Y4I	2.42
Y4A	2.12
Y4E	3.79
Y4C	3.01

Variant	protein stability index
Y4P	2.28
Y4H	2.33
Y4K	2.85
Y4S	2.27
Y4Q	2.66
Y4F	2.5
Y4D	3.03
F1S	2.85
F1Y	2.25
F1P	3.42
F1M	3.03
F1E	3.25
F1C	2.6
F1T	3.22
F1Q	2.79
F1G	3.31
F1D	3.01
F1W	2.82
F1H	3.24
F1R	2.43
F1L	3.19
F1A	2.85
F1N	3.23
F1I	2.81

Variants of: B2
Assay: as above
Settings: c terminus: a fixed tail appended

Variant	protein stability index
Q10N	2.37
Q10P	2.72
Q10D	2.75
Q10K	3.05
Q22S	2.99
Q22V	3.65
Q22T	3.27
Q22G	3.65
Q22R	3.1
Q22D	2.17
Q22P	2.12
Q22W	2.54
Q22A	3.15
Q22Y	2.33
Q22I	2.2
C13P	2.42
C13N	3.63
C13I	4.59
C13H	2.4
C13Q	4.88
C13W	3.35
C13A	3.91
C13Y	2.77
L15S	3.51

Variant	protein stability index
L15M	2.19
L15F	2.97
L15Y	1.98
L15H	1.08
L15I	3.1
L15W	1.09
L15N	1.98
M12Y	2.9
M12Q	2.04
F9P	1.51
F9D	1.51
F9E	4.01
S24P	4.65
S24Y	3.56
S24C	2.39
S24F	2.53
S24G	2.36
S24A	3.22
S24Q	3.86
S24L	3.43
S24N	3.14
S24T	3.71
S24M	1.94
S24I	1.96

Variant	protein stability index
S24K	3.25
Y21E	2.38
Y21R	2.92
Y21I	4.41
Y21K	1.9
Y21G	3.18
A18H	3.29
A18C	2.87
A18L	2.35
L14E	3.59
L14A	3.65
L14T	2.78
L14I	2.24
C17H	4.02
C17D	1.91
C17R	4.51
C17N	3.58
C17T	2.97
C17M	5.55
A11Y	3.96
A11I	2.4
A11C	2.69
A11K	1.32
V23P	2.88

Variant	protein stability index
V23I	4.12
V23D	1.45
V23W	3.16
V23C	3.74
V23K	2.33
I16N	2.67
I16D	1.34
I16G	3.97
I16L	2.92
I16M	2.51
I16E	1.7
I16H	2.82
M20V	2.24
M20T	2.03
E19L	5.4
E19A	2.92
E19V	3.28
E19N	2.31
E19M	1.55
E19K	2.48
E19D	2.72
E19S	2.06
E19G	2.99

From the supplement of paper PMC10567573
